US20210032299A1 (Eli Lilly, published 2021)
Starred links: 1 amine or outer side, 2 acyl side, 3 side chain; linkers in the order of their positions; H or OH if unused. Non-standard residues stand in square brackets, D forms with d. Groups on a side chain read outwards from the residue. No end group written: not given here. *: point of attachment. C20 diacid = O=C(O)CCCCCCCCCCCCCCCCCCC(=O)*; γGlu = O=C(O)[C@H](CCC(=O)[*:2])N[*:1]; αMeF = C[C@](N)(Cc1ccccc1)C(=O)O; 4Pal = N[C@@H](Cc1ccncc1)C(=O)O; αMeL = CC(C)C[C@](C)(N)C(=O)O; AEEA = NCCOCCOCC(=O)O; Aib = CC(C)(N)C(=O)O

T1: human glucose-dependent insulinotropic peptide receptor (human, UniProt P48546 22-466)
T1 sequence (looked up): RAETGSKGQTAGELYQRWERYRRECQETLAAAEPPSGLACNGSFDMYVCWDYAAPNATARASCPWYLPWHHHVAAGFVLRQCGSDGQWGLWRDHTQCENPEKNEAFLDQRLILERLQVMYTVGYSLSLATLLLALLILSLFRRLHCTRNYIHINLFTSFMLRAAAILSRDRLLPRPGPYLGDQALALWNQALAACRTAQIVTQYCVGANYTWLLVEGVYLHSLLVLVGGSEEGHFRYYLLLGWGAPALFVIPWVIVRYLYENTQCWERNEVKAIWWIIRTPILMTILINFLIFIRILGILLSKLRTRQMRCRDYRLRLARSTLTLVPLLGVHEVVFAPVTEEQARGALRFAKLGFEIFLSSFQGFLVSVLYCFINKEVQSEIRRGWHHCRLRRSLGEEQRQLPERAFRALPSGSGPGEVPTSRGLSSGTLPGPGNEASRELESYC

B1: Example 60 (peptide)
peptide: Y[Aib]EGT[αMeF]ISDYSI[αMeL]LDKK([AEEA-AEEA-γGlu-C20 diacid])HQ[Aib]EFVE[4Pal]LLAQGPSSGAPPPS-NH2
modifications: N-terminus assumed
SMILES: CC[C@H](C)[C@H](NC(=O)[C@H](CO)NC(=O)[C@H](Cc1ccc(O)cc1)NC(=O)[C@H](CC(=O)O)NC(=O)[C@H](CO)NC(=O)[C@@H](NC(=O)[C@](C)(Cc1ccccc1)NC(=O)[C@@H](NC(=O)CNC(=O)[C@H](CCC(=O)O)NC(=O)C(C)(C)NC(=O)[C@@H](N)Cc1ccc(O)cc1)[C@@H](C)O)[C@@H](C)CC)C(=O)N[C@@](C)(CC(C)C)C(=O)N[C@@H](CC(C)C)C(=O)N[C@@H](CC(=O)O)C(=O)N[C@@H](CCCCN)C(=O)N[C@@H](CCCCNC(=O)COCCOCCNC(=O)COCCOCCNC(=O)CC[C@H](NC(=O)CCCCCCCCCCCCCCCCCCC(=O)O)C(=O)O)C(=O)N[C@@H](Cc1c[nH]cn1)C(=O)N[C@@H](CCC(N)=O)C(=O)NC(C)(C)C(=O)N[C@@H](CCC(=O)O)C(=O)N[C@@H](Cc1ccccc1)C(=O)N[C@H](C(=O)N[C@@H](CCC(=O)O)C(=O)N[C@@H](Cc1ccncc1)C(=O)N[C@@H](CC(C)C)C(=O)N[C@@H](CC(C)C)C(=O)N[C@@H](C)C(=O)N[C@@H](CCC(N)=O)C(=O)NCC(=O)N1CCC[C@H]1C(=O)N[C@@H](CO)C(=O)N[C@@H](CO)C(=O)NCC(=O)N[C@@H](C)C(=O)N1CCC[C@H]1C(=O)N1CCC[C@H]1C(=O)N1CCC[C@H]1C(=O)N[C@@H](CO)C(N)=O)C(C)C
B2: Example 61 (peptide)
peptide: Y[Aib]EGT[αMeF]ISDYSI[αMeL]LDKK([AEEA-AEEA-γGlu-C20 diacid])HQ[Aib]EFVE[4Pal]LLATGPSSGAPPPS-NH2
modifications: N-terminus assumed
SMILES: CC[C@H](C)[C@H](NC(=O)[C@H](CO)NC(=O)[C@H](Cc1ccc(O)cc1)NC(=O)[C@H](CC(=O)O)NC(=O)[C@H](CO)NC(=O)[C@@H](NC(=O)[C@](C)(Cc1ccccc1)NC(=O)[C@@H](NC(=O)CNC(=O)[C@H](CCC(=O)O)NC(=O)C(C)(C)NC(=O)[C@@H](N)Cc1ccc(O)cc1)[C@@H](C)O)[C@@H](C)CC)C(=O)N[C@@](C)(CC(C)C)C(=O)N[C@@H](CC(C)C)C(=O)N[C@@H](CC(=O)O)C(=O)N[C@@H](CCCCN)C(=O)N[C@@H](CCCCNC(=O)COCCOCCNC(=O)COCCOCCNC(=O)CC[C@H](NC(=O)CCCCCCCCCCCCCCCCCCC(=O)O)C(=O)O)C(=O)N[C@@H](Cc1c[nH]cn1)C(=O)N[C@@H](CCC(N)=O)C(=O)NC(C)(C)C(=O)N[C@@H](CCC(=O)O)C(=O)N[C@@H](Cc1ccccc1)C(=O)N[C@H](C(=O)N[C@@H](CCC(=O)O)C(=O)N[C@@H](Cc1ccncc1)C(=O)N[C@@H](CC(C)C)C(=O)N[C@@H](CC(C)C)C(=O)N[C@@H](C)C(=O)N[C@H](C(=O)NCC(=O)N1CCC[C@H]1C(=O)N[C@@H](CO)C(=O)N[C@@H](CO)C(=O)NCC(=O)N[C@@H](C)C(=O)N1CCC[C@H]1C(=O)N1CCC[C@H]1C(=O)N1CCC[C@H]1C(=O)N[C@@H](CO)C(N)=O)[C@@H](C)O)C(C)C
B3: Example 62 (peptide)
peptide: Y[Aib]EGT[αMeF]ISDYSI[αMeL]LDKK([AEEA-AEEA-γGlu-C20 diacid])HQ[Aib]EFVE[4Pal]LLAAGPSSGAPPPS-NH2
modifications: N-terminus assumed
SMILES: CC[C@H](C)[C@H](NC(=O)[C@H](CO)NC(=O)[C@H](Cc1ccc(O)cc1)NC(=O)[C@H](CC(=O)O)NC(=O)[C@H](CO)NC(=O)[C@@H](NC(=O)[C@](C)(Cc1ccccc1)NC(=O)[C@@H](NC(=O)CNC(=O)[C@H](CCC(=O)O)NC(=O)C(C)(C)NC(=O)[C@@H](N)Cc1ccc(O)cc1)[C@@H](C)O)[C@@H](C)CC)C(=O)N[C@@](C)(CC(C)C)C(=O)N[C@@H](CC(C)C)C(=O)N[C@@H](CC(=O)O)C(=O)N[C@@H](CCCCN)C(=O)N[C@@H](CCCCNC(=O)COCCOCCNC(=O)COCCOCCNC(=O)CC[C@H](NC(=O)CCCCCCCCCCCCCCCCCCC(=O)O)C(=O)O)C(=O)N[C@@H](Cc1c[nH]cn1)C(=O)N[C@@H](CCC(N)=O)C(=O)NC(C)(C)C(=O)N[C@@H](CCC(=O)O)C(=O)N[C@@H](Cc1ccccc1)C(=O)N[C@H](C(=O)N[C@@H](CCC(=O)O)C(=O)N[C@@H](Cc1ccncc1)C(=O)N[C@@H](CC(C)C)C(=O)N[C@@H](CC(C)C)C(=O)N[C@@H](C)C(=O)N[C@@H](C)C(=O)NCC(=O)N1CCC[C@H]1C(=O)N[C@@H](CO)C(=O)N[C@@H](CO)C(=O)NCC(=O)N[C@@H](C)C(=O)N1CCC[C@H]1C(=O)N1CCC[C@H]1C(=O)N1CCC[C@H]1C(=O)N[C@@H](CO)C(N)=O)C(C)C
B4: Example 63 (peptide)
peptide: Y[Aib]EGTFISDYSI[αMeL]LDKK([AEEA-AEEA-γGlu-C20 diacid])HQ[Aib]EFVEYLLEQGPSSGAPPPS-NH2
modifications: N-terminus assumed
SMILES: CC[C@H](C)[C@H](NC(=O)[C@H](Cc1ccccc1)NC(=O)[C@@H](NC(=O)CNC(=O)[C@H](CCC(=O)O)NC(=O)C(C)(C)NC(=O)[C@@H](N)Cc1ccc(O)cc1)[C@@H](C)O)C(=O)N[C@@H](CO)C(=O)N[C@@H](CC(=O)O)C(=O)N[C@@H](Cc1ccc(O)cc1)C(=O)N[C@@H](CO)C(=O)N[C@H](C(=O)N[C@@](C)(CC(C)C)C(=O)N[C@@H](CC(C)C)C(=O)N[C@@H](CC(=O)O)C(=O)N[C@@H](CCCCN)C(=O)N[C@@H](CCCCNC(=O)COCCOCCNC(=O)COCCOCCNC(=O)CC[C@H](NC(=O)CCCCCCCCCCCCCCCCCCC(=O)O)C(=O)O)C(=O)N[C@@H](Cc1c[nH]cn1)C(=O)N[C@@H](CCC(N)=O)C(=O)NC(C)(C)C(=O)N[C@@H](CCC(=O)O)C(=O)N[C@@H](Cc1ccccc1)C(=O)N[C@H](C(=O)N[C@@H](CCC(=O)O)C(=O)N[C@@H](Cc1ccc(O)cc1)C(=O)N[C@@H](CC(C)C)C(=O)N[C@@H](CC(C)C)C(=O)N[C@@H](CCC(=O)O)C(=O)N[C@@H](CCC(N)=O)C(=O)NCC(=O)N1CCC[C@H]1C(=O)N[C@@H](CO)C(=O)N[C@@H](CO)C(=O)NCC(=O)N[C@@H](C)C(=O)N1CCC[C@H]1C(=O)N1CCC[C@H]1C(=O)N1CCC[C@H]1C(=O)N[C@@H](CO)C(N)=O)C(C)C)[C@@H](C)CC
B5: Example 64 (peptide)
peptide: Y[Aib]EGTFISDYSI[αMeL]LDKK([AEEA-AEEA-γGlu-C20 diacid])HQ[Aib]EFVEYLLETGPSSGAPPPS-NH2
modifications: N-terminus assumed
SMILES: CC[C@H](C)[C@H](NC(=O)[C@H](Cc1ccccc1)NC(=O)[C@@H](NC(=O)CNC(=O)[C@H](CCC(=O)O)NC(=O)C(C)(C)NC(=O)[C@@H](N)Cc1ccc(O)cc1)[C@@H](C)O)C(=O)N[C@@H](CO)C(=O)N[C@@H](CC(=O)O)C(=O)N[C@@H](Cc1ccc(O)cc1)C(=O)N[C@@H](CO)C(=O)N[C@H](C(=O)N[C@@](C)(CC(C)C)C(=O)N[C@@H](CC(C)C)C(=O)N[C@@H](CC(=O)O)C(=O)N[C@@H](CCCCN)C(=O)N[C@@H](CCCCNC(=O)COCCOCCNC(=O)COCCOCCNC(=O)CC[C@H](NC(=O)CCCCCCCCCCCCCCCCCCC(=O)O)C(=O)O)C(=O)N[C@@H](Cc1c[nH]cn1)C(=O)N[C@@H](CCC(N)=O)C(=O)NC(C)(C)C(=O)N[C@@H](CCC(=O)O)C(=O)N[C@@H](Cc1ccccc1)C(=O)N[C@H](C(=O)N[C@@H](CCC(=O)O)C(=O)N[C@@H](Cc1ccc(O)cc1)C(=O)N[C@@H](CC(C)C)C(=O)N[C@@H](CC(C)C)C(=O)N[C@@H](CCC(=O)O)C(=O)N[C@H](C(=O)NCC(=O)N1CCC[C@H]1C(=O)N[C@@H](CO)C(=O)N[C@@H](CO)C(=O)NCC(=O)N[C@@H](C)C(=O)N1CCC[C@H]1C(=O)N1CCC[C@H]1C(=O)N1CCC[C@H]1C(=O)N[C@@H](CO)C(N)=O)[C@@H](C)O)C(C)C)[C@@H](C)CC
B6: Example 65 (peptide)
peptide: Y[Aib]EGTFISDYSI[αMeL]LDKK([AEEA-AEEA-γGlu-C20 diacid])HQ[Aib]EFVEYLLEAGPSSGAPPPS-NH2
modifications: N-terminus assumed
SMILES: CC[C@H](C)[C@H](NC(=O)[C@H](Cc1ccccc1)NC(=O)[C@@H](NC(=O)CNC(=O)[C@H](CCC(=O)O)NC(=O)C(C)(C)NC(=O)[C@@H](N)Cc1ccc(O)cc1)[C@@H](C)O)C(=O)N[C@@H](CO)C(=O)N[C@@H](CC(=O)O)C(=O)N[C@@H](Cc1ccc(O)cc1)C(=O)N[C@@H](CO)C(=O)N[C@H](C(=O)N[C@@](C)(CC(C)C)C(=O)N[C@@H](CC(C)C)C(=O)N[C@@H](CC(=O)O)C(=O)N[C@@H](CCCCN)C(=O)N[C@@H](CCCCNC(=O)COCCOCCNC(=O)COCCOCCNC(=O)CC[C@H](NC(=O)CCCCCCCCCCCCCCCCCCC(=O)O)C(=O)O)C(=O)N[C@@H](Cc1c[nH]cn1)C(=O)N[C@@H](CCC(N)=O)C(=O)NC(C)(C)C(=O)N[C@@H](CCC(=O)O)C(=O)N[C@@H](Cc1ccccc1)C(=O)N[C@H](C(=O)N[C@@H](CCC(=O)O)C(=O)N[C@@H](Cc1ccc(O)cc1)C(=O)N[C@@H](CC(C)C)C(=O)N[C@@H](CC(C)C)C(=O)N[C@@H](CCC(=O)O)C(=O)N[C@@H](C)C(=O)NCC(=O)N1CCC[C@H]1C(=O)N[C@@H](CO)C(=O)N[C@@H](CO)C(=O)NCC(=O)N[C@@H](C)C(=O)N1CCC[C@H]1C(=O)N1CCC[C@H]1C(=O)N1CCC[C@H]1C(=O)N[C@@H](CO)C(N)=O)C(C)C)[C@@H](C)CC

Key:
Experiment in all cases: cell-based or functional assay
human glucagon receptor = human glucagon receptor (human, UniProt P47871 26-477)
Chain of human glucagon receptor (P47871 26-477): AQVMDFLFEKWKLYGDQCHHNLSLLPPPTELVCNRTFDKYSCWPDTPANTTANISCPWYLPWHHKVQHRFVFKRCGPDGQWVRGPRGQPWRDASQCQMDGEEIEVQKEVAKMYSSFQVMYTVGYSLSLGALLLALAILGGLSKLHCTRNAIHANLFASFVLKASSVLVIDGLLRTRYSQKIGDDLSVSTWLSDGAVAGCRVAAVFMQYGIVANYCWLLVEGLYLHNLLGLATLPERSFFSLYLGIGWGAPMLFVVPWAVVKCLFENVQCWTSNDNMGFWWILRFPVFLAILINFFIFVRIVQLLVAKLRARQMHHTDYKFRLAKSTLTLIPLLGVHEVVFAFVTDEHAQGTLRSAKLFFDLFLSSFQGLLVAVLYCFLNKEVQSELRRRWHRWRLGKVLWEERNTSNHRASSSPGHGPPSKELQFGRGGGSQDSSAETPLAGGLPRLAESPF

human GLP-1 receptor = human GLP-1 receptor (human, UniProt P43220 24-463)
[1] = biological target: T1, human glucose-dependent insulinotropic …

| Binder | hGcgR cAMP Rel EC50 (human glucagon receptor) [nM] | hGLP1R cAMP Rel EC50 (human GLP-1 receptor) [nM] | hGIPR cAMP Rel EC50 [1] [nM] |
| --- | --- | --- | --- |
| B1 | > 5000 | 71 | 0.0369 |
| B2 | > 5000 | 192 | 0.0167 |
| B3 | > 5000 | 58.2 | 0.0116 |
| B4 | 1170 | > 5000 | 0.0398 |
| B5 | 3070 | > 5000 | 0.0448 |
| B6 | 850 | > 5000 | 0.0346 |
